Patent publication US20200239573A1 (CRESCENDO BIOLOGICS, published 2020)

Key:
[1] = molecular target: T1, human PD-1 on primary human CD4+ T cells (human, UniProt Q15116 21-288); test: flow cytometry, PHA-stimulated human CD4+ T cells, donor 2
Method: (§1) Binding of monovalent single domain antibodies and multivalent binding agents to T cells was measured using flow cytometry. […] T-cells were stimulated with 2.5 μg/ml PHA for 2-4 days in RPMI media supplemented with 10% FBS, 2 mM Glutamine, 1× Pen/Strep. Cells were transferred into 96 well plates (75000 per well), blocked for 10 mins with PBS/1% BSA, then incubated with serially diluted VH in staining buffer (PBS/1% BSA) for 1 hour at 4° C. Cells were washed with staining buffer by centrifugation then incubated with 10 μg/ml biotinylated Anti His antibody for 40 mins at 4° C. Cells were washed again then stained with Streptavidin Alexa Fluor-488 (10 μg/ml) and 1:5000 diluted Live Dead near IR stain (Molecular Probes cat no. L10119) for 30 mins at 4° C. After further washing cells were fixed and fluorescence measured by flow cytometry.

[2] = molecular target: T1, human PD-1 on primary human CD4+ T cells; test: flow cytometry, PHA-stimulated human CD4+ T cells, donor 4
Method: as §1

[3] = molecular target: T2, human PD-1 expressed on cells (CHO human PD-1 cells) (human, UniProt Q15116 21-288); test: FMAT 1.57 epitope competition on CHO human PD-1 cells; competitor 1.57-Strep; sample kept 0 days in mouse serum
T2 construct: also called CHO TREX human PD-1 cell line; CHO PD-1
T2 sequence (Q15116 21-288): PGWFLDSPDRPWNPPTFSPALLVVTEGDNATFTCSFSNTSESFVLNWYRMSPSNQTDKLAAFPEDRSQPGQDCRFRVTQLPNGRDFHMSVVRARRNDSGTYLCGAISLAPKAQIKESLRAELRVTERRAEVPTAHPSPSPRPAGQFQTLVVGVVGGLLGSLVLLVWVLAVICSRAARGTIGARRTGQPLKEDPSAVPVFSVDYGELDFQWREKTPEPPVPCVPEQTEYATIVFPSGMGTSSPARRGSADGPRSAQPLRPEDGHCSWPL
Method: (§2) For the epitope competition assay reagents were prepared in FMAT assay buffer. […] Plates were incubated for a minimum of 1.5 hours at room temperature then fluorescence measured in the FL2 (502 nm-537 nm) and FL5 (677-800 nm) channels on the Mirrorball plate reader (TTP) following excitation at 488 nm and 640 nm. Data was expressed as a % of the total binding control (i.e. % control) after subtraction of the background signal determined from the non-specific binding control wells.
(§3) Serum stability of VH and multivalent VH constructs was assessed by measurement of their activity following incubation for 0, 1, 4 or 7 days in mouse serum (Sigma M5905).

[4] = molecular target: T2, human PD-1 expressed on cells (CHO …); test: FMAT 1.57 epitope competition on CHO human PD-1 cells; competitor 1.57-Strep; sample kept 7 days in human serum
[5] = molecular target: T2, human PD-1 expressed on cells (CHO …); test: FMAT direct binding to CHO human PD-1 cells; column headed CHO PD-1 binding IC50 (M)
Text: Plates were read in the FL2 (502 nm-537 nm) and FL5 (677-800 nm) channels on the TTP Mirrorball plate reader following excitation at 488 nm and 640 nm.

[6] = molecular target: T2, human PD-1 expressed on cells (CHO …); test: FMAT 1.57 epitope competition on CHO human PD-1 cells; competitor 1.57-Strep; sample kept 4 days in mouse serum
Method: as §2, §3

[7] = molecular target: T2, human PD-1 expressed on cells (CHO …); test: FMAT 1.57 epitope competition on CHO human PD-1 cells; competitor 1.57-Strep; sample kept 1 day in human serum
[8] = molecular target: T2, human PD-1 expressed on cells (CHO …); test: FMAT 1.57 epitope competition on CHO human PD-1 cells; competitor 1.57-Strep; sample kept 1 day in mouse serum
Method: as §2, §3

[9] = molecular target: T2, human PD-1 expressed on cells (CHO …); test: FMAT inhibition; 200 pM PD-L2 on CHO human PD-1 cells
Method: as §2, with “All” for “For the epitope competition assay”, “reagents and serially diluted VH” for “reagents”, “2” for “a minimum of 1.5”

[10] = molecular target: T2, human PD-1 expressed on cells (CHO …); test: FMAT 1.57 epitope competition on CHO human PD-1 cells; competitor 1.57-Strep; sample kept 7 days in mouse serum
Method: as §2, §3

[11] = molecular target: T1, human PD-1 on primary human CD4+ T cells; test: flow cytometry, PHA-stimulated human CD4+ T cells, donor 1
Method: as §1

[12] = molecular target: T3, cynomolgus PD-1 recombinant protein (cynomolgus, UniProt B0LAJ3 25-170); test: HTRF binding, 2 nM PD-1, anti-Fc cryptate and anti-His-D2
T3 construct: Detected with anti human-Fc cryptate, so probably Fc tagged; also called cyno PD-1; cynomolgus PD-1 (Acro Biosystems cat no. PD-1-05254); not shown: The vendor's carrier tag; It is probably a human Fc, since detection used anti human-Fc cryptate
T3 sequence (B0LAJ3 entry or part of it limits assumed): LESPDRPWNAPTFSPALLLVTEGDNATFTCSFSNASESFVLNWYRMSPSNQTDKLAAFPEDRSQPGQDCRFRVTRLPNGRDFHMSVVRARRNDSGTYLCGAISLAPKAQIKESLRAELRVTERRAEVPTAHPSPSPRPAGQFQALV
Method: (§4) e) Species Cross Reactivity Testing Purified […] were tested for their ability to bind to human PD-1 (R&D Systems cat no. 1086-PD), cynomolgus PD-1 (Acro Biosystems cat no. PD-1-05254) and mouse PD-1 (R&D Systems cat no. 1021-PD) in an HTRF Binding assay format. All reagents and serially diluted VH were prepared in assay buffer containing PBS, 0.1% BSA and 0.4M Potassium Fluoride. Samples or assay buffer (non-specific binding) were incubated with 2 nM human/cynomolgus or mouse PD-1, 1 nM Anti human-Fc Cryptate PAb (Cisbio cat. no. 61HFCKLB) and 30 nM anti His-D2 (CisBio cat no 61HISDLA) in black 384-shallow well assay plates for a minimum of 3 hours at room temperature. Time-resolved fluorescent emission at 620 nm and 665 nm was measured following excitation at 337 nm on the BMG PHERAstar plate reader. The HTRF ratio were calculated ((665 nm emission/620 nm emission)*10000) and the data corrected for (non-specific binding) to give the specific binding signal.

[13] = molecular target: T4, recombinant human PD-1 Fc chimera (human, UniProt Q15116 25-167); test: as above
T4 construct: Bought protein; also called human PD-1-huFc; huPD-1-Fc; not shown: human Fc
T4 sequence (Q15116 25-167 limits assumed, change not shown): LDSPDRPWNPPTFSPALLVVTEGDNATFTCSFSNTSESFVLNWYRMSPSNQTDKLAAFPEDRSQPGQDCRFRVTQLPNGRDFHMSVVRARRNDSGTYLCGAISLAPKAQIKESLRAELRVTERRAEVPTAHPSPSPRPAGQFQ
Method: as §4

T1 sequence (Q15116 21-288): as the sequence (Q15116 21-288) above

EC50 [1]: 1.1 nM
EC50 [2]: 0.9 nM
IC50 [3]: 4.4 nM
IC50 [4]: 5.4 nM
EC50 [5]: 0.1 nM
IC50 [6]: 4.7 nM
IC50 [7]: 4.9 nM
IC50 [8]: 4.4 nM
IC50 [9]: 4 nM
IC50 [10]: 5.2 nM
EC50 [11]: 0.8 nM
EC50 [12]: 4.1 nM
EC50 [13]: 2.6 nM
B1: Humabody® 1.92 (VHH)
VHH: EVQLVESGGGLVKPGGSLRLSCAASGFTFSDESMTWMRQAPGKGLEWVSYISSGGGVKFYADSVKGRFTISRDNAKNSLYLQMNSLRAEDTAVYYCAREAPLRLGESPHDAFDISGQGTMVTVSS
notes: human VH single domain antibody
